Data set [1] has as its system HeLa Kyoto. In words: solubility in G1/S (NP-40 vs SDS abundance) (log2 ratio); higher = more soluble. The settings on record: cell cycle stage: G1/S.
In data set [2] the test system is HeLa Kyoto. Put plainly: melting temperature (median over replicates), in situ; higher = more thermally stable.
Data set [3] concerns HeLa Kyoto. Put plainly: solubility change mitosis vs G1/S (difference of NP-40 vs SDS log2 ratios) (log2 ratio difference); higher = more soluble in mitosis.
Data set [4] has as its system HeLa Kyoto. Put plainly: thermal stability score vs G1/S (z-score of summed log2 fold changes over temperatures); higher = more thermally stable than in G1/S.
The mark [5] stands for this setting: cell cycle stage: early G1 (4.5 h after nocodazole release).
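For melting temperature (median over replicates), in situ in this document: HeLa Kyoto cells synchronized by double thymidine or nocodazole block, proteins quantified by TMT10plex mass spectrometry, three independent biological replicates.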
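For solubility change mitosis vs G1/S (difference of NP-40 vs SDS log2 ratios) in this document: synchronized HeLa Kyoto cells (double thymidine block for G1/S, nocodazole release for mitosis), protein amounts in NP-40 versus SDS lysates quantified by mass spectrometry, three biological replicates.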
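For solubility in G1/S (NP-40 vs SDS abundance) in this document: HeLa Kyoto cells arrested at G1/S by double thymidine block, proteins quantified by TMT10plex mass spectrometry in mild NP-40 versus SDS extracts, three biological replicates.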
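For thermal stability score vs G1/S (z-score of summed log2 fold changes over temperatures) in this document: synchronized HeLa Kyoto cells, proteins quantified by TMT10plex mass spectrometry, three biological replicates, mitosis taken 0.5 h after nocodazole release, G1/S directly after double thymidine block.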

Take “MEPEPEPAAVEVPAGRVLSARELFAARSRSQKLPQRSHGPKDFLPDGSAAQAERLRRCREELWQLLAEQRVERLGSLVAAEWRPEEGFVELKSPAGKFWQTMGFSEQGRQRLHPEEALYLLECGSIHLFHQDLPLSIQEAYQLLLTDHTVTFLQYQVFSHLKRLGYVVRRFQPSSVLSPYERQLNLDASVQHLEDGDGKRKRSSSSPRSINKKAKALDNSLQPKSLAASSPPPCSQPSQCPEEKPQESSPMKGPGGPFQLLGSLGPSPGPAREGVGCSWESGRAENGVTGAGKRRWNFEQISFPNMASDSRHTLLRAPAPELLPANVAGRETDAESWCQKLNQRKEKLSRREREHHAEAAQFQEDVNADPEVQRCSSWREYKELLQRRQVQRSQRRAPHLWGQPVTPLLSPGQASSPAVVLQHISVLQTTHLPDGGARLLEKSGGLEIIFDVYQADAVATFRKNNPGKPYARMCISGFDEPVPDLCSLKRLSYQSGDVPLIFALVDHGDISFYSFRDFTLPQDVGH [TSEN54]”: the “solubility in G1/S (log2)” value in the data set with HeLa Kyoto [1] came to 0.322. Besides, the melting temperature came out at 48.8 °C in the data set with HeLa Kyoto [2] (cell cycle stage: G1/S) and 50 °C in the data set on HeLa Kyoto [2] (cell cycle stage: mitosis). For the same substance, the “solubility change mitosis (log2)” value in the data set with HeLa Kyoto [3] was -0.153. Further, the thermal stability score with HeLa Kyoto [4] (setting [5]) is 0.317; with HeLa Kyoto [4] (cell cycle stage: mitosis), 0.466.

Take “MLKSKTFLKKTRAGGVMKIVREHYLRDDIGCGAPGCAACGGAHEGPALEPQPQDPASSVCPQPHYLLPDTNVLLHQIDVLEDPAIRNVIVLQTVLQEVRNRSAPVYKRIRDVTNNQEKHFYTFTNEHHRETYVEQEQGENANDRNDRAIRVAAKWYNEHLKKMSADNQLQVIFITNDRRNKEKAIEEGIPAFTCEEYVKSLTANPELIDRLACLSEEGNEIESGKIIFSEHLPLSKLQQGIKSGTYLQGTFRASRENYLEATVWIHGDNEENKEIILQGLKHLNRAVHEDIVAVELLPKSQWVAPSSVVLHDEGQNEEDVEKEEETERMLKTAVSEKMLKPTGRVVGIIKRNWRPYCGMLSKSDIKESRRHLFTPADKRIPRIRIETRQASTLEGRRIIVAIDGWPRNSRYPNGHFVRNLGDVGEKETETEVLLLEHDVPHQPFSQAVLSFLPKMPWSITEKDMKNREDLRHLCICSVDPPGCTDIDDALHCRELENGNLEVGVHIADVSHFIRPGNALDQESARRGTTVYLCEKRIDMVPELLSSNLCSLKCDVDRLAFSCIWEMNHNAEILKTKFTKSVINSKASLTYAEAQLRIDSANMNDDITTSLRGLNKLAKILKKRRIEKGALTLSSPEVRFHMDSETHDPIDLQTKELRETNSMVEEFMLLANISVAKKIHEEFSEHALLRKHPAPPPSNYEILVKAARSRNLEIKTDTAKSLAESLDQAESPTFPYLNTLLRILATRCMMQAVYFCSGMDNDFHHYGLASPIYTHFTSPIRRYADVIVHRLLAVAIGADCTYPELTDKHKLADICKNLNFRHKMAQYAQRASVAFHTQLFFKSKGIVSEEAYILFVRKNAIVVLIPKYGLEGTVFFEEKDKPNPQLIYDDEIPSLKIEDTVFHVFDKVKVKIMLDSSNLQHQKIRMSLVEPQIPGISIPTDTSNMDLNGPKKKKMKLGK [DIS3]”: the “solubility in G1/S (log2)” value in the data set on HeLa Kyoto [1] is -0.0366. The melting temperature was 47.9 °C in the data set on HeLa Kyoto [2] (cell cycle stage: G1/S) and 49.2 °C with HeLa Kyoto [2] (cell cycle stage: mitosis). In the data set with HeLa Kyoto [3], the “solubility change mitosis (log2)” value was -0.0946. Further, the thermal stability score with HeLa Kyoto [4] (setting [5]) came out at 1.5; in the data set on HeLa Kyoto [4] (cell cycle stage: mitosis) it was 3.37.

As to “MAVAGAVSGEPLVHWCTQQLRKTFGLDVSEEIIQYVLSIESAEEIREYVTDLLQGNEGKKGQFIEELITKWQKNDQELISDPLQQCFKKDEILDGQKSGDHLKRGRKKGRNRQEVPAFTEPDTTAEVKTPFDLAKAQENSNSVKKKTKFVNLYTREGQDRLAVLLPGRHPCDCLGQKHKLINNCLICGRIVCEQEGSGPCLFCGTLVCTHEEQDILQRDSNKSQKLLKKLMSGVENSGKVDISTKDLLPHQELRIKSGLEKAIKHKDKLLEFDRTSIRRTQVIDDESDYFASDSNQWLSKLERETLQKREEELRELRHASRLSKKVTIDFAGRKILEEENSLAEYHSRLDETIQAIANGTLNQPLTKLDRSSEEPLGVLVNPNMYQSPPQWVDHTGAASQKKAFRSSGFGLEFNSFQHQLRIQDQEFQEGFDGGWCLSVHQPWASLLVRGIKRVEGRSWYTPHRGRLWIAATAKKPSPQEVSELQATYRLLRGKDVEFPNDYPSGCLLGCVDLIDCLSQKQFKEQFPDISQESDSPFVFICKNPQEMVVKFPIKGNPKIWKLDSKIHQGAKKGLMKQNKAV [TRIP4]”, in the data set on HeLa Kyoto [1], the “solubility in G1/S (log2)” value was -0.111. Further, the melting temperature is 50.6 °C in the data set with HeLa Kyoto [2] (cell cycle stage: G1/S) and 49.4 °C in the data set with HeLa Kyoto [2] (cell cycle stage: mitosis). The “solubility change mitosis (log2)” value with HeLa Kyoto [3] was -0.0219. Moreover, the thermal stability score is 1.04 in the data set with HeLa Kyoto [4] (setting [5]) and 0.759 in the data set with HeLa Kyoto [4] (cell cycle stage: mitosis).

With PSME4, in the data set with HeLa Kyoto [1], the “solubility in G1/S (log2)” value was -0.391. For the same substance, the melting temperature was 52.1 °C with HeLa Kyoto [2] (cell cycle stage: G1/S) and 52.2 °C in the data set on HeLa Kyoto [2] (cell cycle stage: mitosis). Further, the “solubility change mitosis (log2)” value with HeLa Kyoto [3] is -0.0943. The thermal stability score in the data set with HeLa Kyoto [4] (setting [5]) is -0.516; with HeLa Kyoto [4] (cell cycle stage: mitosis) it was -0.817.

Turning to NUP188, the “solubility in G1/S (log2)” value in the data set with HeLa Kyoto [1] was -0.299. The values for the melting temperature in the data set on HeLa Kyoto [2] (cell cycle stage: G1/S) and in the data set on HeLa Kyoto [2] (cell cycle stage: mitosis) were 51 °C and 49 °C, respectively. Moreover, the “solubility change mitosis (log2)” value in the data set on HeLa Kyoto [3] is -0.108. The thermal stability score is -2.04 in the data set with HeLa Kyoto [4] (setting [5]) and -2.93 in the data set on HeLa Kyoto [4] (cell cycle stage: mitosis).

Consider “MADYSTVPPPSSGSAGGGGGGGGGGGVNDAFKDALQRARQIAAKIGGDAGTSLNSNDYGYGGQKRPLEDGDQPDAKKVAPQNDSFGTQLPPMHQQQSRSVMTEEYKVPDGMVGFIIGRGGEQISRIQQESGCKIQIAPDSGGLPERSCMLTGTPESVQSAKRLLDQIVEKGRPAPGFHHGDGPGNAVQEIMIPASKAGLVIGKGGETIKQLQERAGVKMVMIQDGPQNTGADKPLRITGDPYKVQQAKEMVLELIRDQGGFREVRNEYGSRIGGNEGIDVPIPRFAVGIVIGRNGEMIKKIQNDAGVRIQFKPDDGTTPERIAQITGPPDRCQHAAEIITDLLRSVQAGNPGGPGPGGRGRGRGQGNWNMGPPGGLQEFNFIVPTGKTGLIIGKGGETIKSISQQSGARIELQRNPPPNADPNMKLFTIRGTPQQIDYARQLIEEKIGGPVNPLGPPVPHGPHGVPGPHGPPGPPGPGTPMGPYNPAPYNPGPPGPAPHGPPAPYAPQGWGNAYPHWQQQAPPDPAKAGTDPNSAAWAAYYAHYYQQQAQPPPAAPAGAPTTTQTNGQGDQQNPAPAGQVDYTKAWEEYYKKMGQAVPAPTGAPPGGQPDYSAAWAEYYRQQAAYYAQTSPQGMPQHPPAPQGQ [FUBP1]”, for which the “solubility in G1/S (log2)” value in the data set on HeLa Kyoto [1] worked out at 0.527. Further, the melting temperature in the data set on HeLa Kyoto [2] (cell cycle stage: G1/S) stood at 57 °C; in the data set on HeLa Kyoto [2] (cell cycle stage: mitosis), 56.4 °C. For the same substance, in the data set on HeLa Kyoto [3], the “solubility change mitosis (log2)” value worked out at 0.0996. For the same substance, the thermal stability score in the data set on HeLa Kyoto [4] (setting [5]) was -0.104; with HeLa Kyoto [4] (cell cycle stage: mitosis) it was -0.787.

For the origin of these results see the supplement of paper PMC5998384.
